# US20120316071A1 (published 2012)
# T1: rHuman Erythropoietin R/Fc Chimera, CF (R&D Systems Cat#963-ER) (human, UniProt P19235 25-250)
# T1 construct: Bought recombinant protein; also called EPO R; EPO R/Fc; Fc part of the bought chimera not given
# T1 sequence (looked up): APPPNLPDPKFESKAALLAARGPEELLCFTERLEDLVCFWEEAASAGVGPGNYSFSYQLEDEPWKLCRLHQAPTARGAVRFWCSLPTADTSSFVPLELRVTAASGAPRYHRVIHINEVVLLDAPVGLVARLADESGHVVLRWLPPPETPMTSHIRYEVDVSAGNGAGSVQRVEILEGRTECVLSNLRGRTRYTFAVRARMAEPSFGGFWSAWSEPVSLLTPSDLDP
# Columns and labels:
# [1] = biological target: T2, rHuman CD44/Fc Chimera, CF (R&D Systems Cat#3660-CD) (human, UniProt P16070 21-220); assay: ECL multispot (MSD) binding assay, antigen spotted on plate, Fab 0.04 uM;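 note: purified Fab incubated 1 h at 20 °C on antigen spots, detected via TAG-labelled antibody, ECL read against each well's blank, with signal-to-blank of at least 4 scored as binder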
# T2 construct: Bought recombinant protein; Fc part of the bought chimera not given
# [2] = biological target: T3, rHuman IGF-1 sR, CF (R&D Systems Cat#391-GR) (human, UniProt P08069 31-932); assay: as above
# T3 construct: Bought recombinant soluble receptor; also called insulin-like growth factor-1 soluble receptor
# [3] = biological target: T4, rHuman HGF R/c-MET/Fc Chimera, CF (R&D Systems Cat#358-MT/CF) (human, UniProt P08581 25-932); assay: as above
# T4 construct: Bought recombinant protein; also called HGF R/Fc; hepatocyte growth factor receptor; Fc part of the bought chimera not given
# [4] = biological target: T5, rHuman P-Cadherin/Fc Chimera, CF (R&D Systems Cat#861-PC) (human, UniProt P22223 108-654); assay: as above
# T5 construct: Bought recombinant protein; Fc part of the bought chimera not given
# [5] = biological target: T1, rHuman Erythropoietin R/Fc Chimera, CF …; assay: as above
# [6] = biological target: T6, rHuman ErbB2/Fc Chimera, CF (R&D Systems Cat#1129-ER) (human, UniProt P04626 23-652); assay: as above
# T6 construct: Bought recombinant protein; also called human epidermal growth factor 2 receptor; Fc part of the bought chimera not given
# [7] = biological target: T7, rHuman Notch-1/Fc Chimera, CF (R&D Systems Cat#3647-TK) (human, UniProt P46531 19-526); assay: as above
# T7 construct: Bought recombinant protein; Fc part of the bought chimera not given
# [8] = biological target: T8, Recombinant Human DLL4 (R&D Systems Cat#1506-D4/CF) (human, UniProt Q9NR61 27-524); assay: as above
# T8 construct: Bought recombinant protein; also called delta-like protein 4; rHuman DLL4
# [9] = biological target: T9, rHuman EGF R/Fc Chimera, CF (R&D Systems Cat#344-ER) (human, UniProt P00533 25-645); assay: as above
# T9 construct: Bought recombinant protein; also called epidermal growth factor receptor; Fc part of the bought chimera not given
# [10] = biological target: T10, Recombinant Human DLL4 (delta-like protein 4) (human, UniProt Q9NR61 27-524); assay: ECL (MSD) binding assay, Fab on immobilised recombinant human DLL4
# T10 construct: also called rHuman DLL4; Delta-like 4
# [11] = biological target: T10, Recombinant Human DLL4 (delta-like …); assay: ELISA, Fab on plate-coated recombinant human DLL4
# [12] = biological target: T11, Recombinant Human DLL4 (delta-like protein 4) (human, UniProt Q9NR61 27-524); assay: SPR, Fab on recombinant human DLL4; column head x10^-3 applied as printed, but KD x ka implies 0.0717 s^-1 unscaled; (±0.00351) at r15c4
# T11 construct: Bought recombinant protein; also called rHuman DLL4; Delta-like 4
# [13] = biological target: T11, Recombinant Human DLL4 (delta-like …); assay: SPR, Fab on recombinant human DLL4; column head x10^5 applied; (±6.24) at r15c3
# [14] = biological target: T11, Recombinant Human DLL4 (delta-like …); assay: SPR, Fab on recombinant human DLL4; (±8.5) at r15c5
# [15] = biological target: T11, Recombinant Human DLL4 (delta-like …); assay: SPR, Fab on recombinant human DLL4; (±200) printed at r9c5; ka and kd printed n/a
# [16] = biological target: T11, Recombinant Human DLL4 (delta-like …); assay: SPR, Fab on recombinant human DLL4; column head x10^-3 applied as printed, but KD x ka implies 0.023 s^-1 unscaled; (±0.004) at r11c4
# [17] = biological target: T11, Recombinant Human DLL4 (delta-like …); assay: SPR, Fab on recombinant human DLL4; column head x10^5 applied; (±0.092) at r11c3
# [18] = biological target: T11, Recombinant Human DLL4 (delta-like …); assay: SPR, Fab on recombinant human DLL4; (±7) at r11c5
# [19] = biological target: T11, Recombinant Human DLL4 (delta-like …); assay: SPR, Fab on recombinant human DLL4; column head x10^-3 applied as printed, but KD x ka implies 0.101 s^-1 unscaled; (±0.0153) at r18c4
# [20] = biological target: T11, Recombinant Human DLL4 (delta-like …); assay: SPR, Fab on recombinant human DLL4; (±9.3) at r18c5
# [21] = biological target: T11, Recombinant Human DLL4 (delta-like …); assay: SPR, Fab on recombinant human DLL4; column head x10^5 applied; (±4.16) at r18c3
# [22] = biological target: T11, Recombinant Human DLL4 (delta-like …); assay: SPR, Fab on recombinant human DLL4; column head x10^-3 applied as printed, but KD x ka implies 0.0845 s^-1 unscaled; (±0.0050) at r13c4
# [23] = biological target: T11, Recombinant Human DLL4 (delta-like …); assay: SPR, Fab on recombinant human DLL4; (±6) at r13c5
# [24] = biological target: T11, Recombinant Human DLL4 (delta-like …); assay: SPR, Fab on recombinant human DLL4; column head x10^5 applied; (±0.6) at r13c3
# [25] = biological target: T12, Recombinant Human DLL4 (R&D Systems Cat#1506-D4/CF) (human, UniProt Q9NR61 27-524); assay: ECL (MSD) binding assay, DLL4 coated on plate, Fab 0.04 uM
# T12 construct: Bought recombinant human DLL4 coated on the ECL plate; also called delta-like protein 4; Delta-like 4
# T4 sequence (P08581 25-932, change not shown): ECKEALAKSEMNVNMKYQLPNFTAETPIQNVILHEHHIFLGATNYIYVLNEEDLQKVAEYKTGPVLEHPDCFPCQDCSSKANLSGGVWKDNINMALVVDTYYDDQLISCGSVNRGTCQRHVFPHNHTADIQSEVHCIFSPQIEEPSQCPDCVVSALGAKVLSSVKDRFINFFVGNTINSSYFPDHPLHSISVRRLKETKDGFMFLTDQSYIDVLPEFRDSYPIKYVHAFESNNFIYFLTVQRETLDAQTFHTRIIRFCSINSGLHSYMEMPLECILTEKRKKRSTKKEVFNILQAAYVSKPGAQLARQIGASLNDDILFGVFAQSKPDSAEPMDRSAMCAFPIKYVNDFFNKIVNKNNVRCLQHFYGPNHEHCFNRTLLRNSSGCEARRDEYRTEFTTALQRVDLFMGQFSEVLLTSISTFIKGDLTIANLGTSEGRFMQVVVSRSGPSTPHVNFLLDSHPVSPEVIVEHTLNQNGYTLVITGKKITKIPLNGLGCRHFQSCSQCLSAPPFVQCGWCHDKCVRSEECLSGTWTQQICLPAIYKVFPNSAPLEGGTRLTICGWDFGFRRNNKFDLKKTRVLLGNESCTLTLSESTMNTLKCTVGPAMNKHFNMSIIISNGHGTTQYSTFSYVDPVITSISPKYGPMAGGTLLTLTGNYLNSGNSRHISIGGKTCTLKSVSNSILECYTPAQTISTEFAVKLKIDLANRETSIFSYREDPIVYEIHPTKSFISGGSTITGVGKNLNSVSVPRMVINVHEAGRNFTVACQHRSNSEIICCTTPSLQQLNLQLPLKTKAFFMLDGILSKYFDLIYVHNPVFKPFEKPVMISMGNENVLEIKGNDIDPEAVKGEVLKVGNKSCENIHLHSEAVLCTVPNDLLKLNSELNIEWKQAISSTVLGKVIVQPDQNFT
binder,measurement,setting,value
"Fab VH5-51_IGHD5-18*01>3_IGHJ4*01 G100K/G104T (H:KT) & V3-4_IGLJ1*01 I98A (Fab, V domains shown, Fab; Expressed from Plasmid A (CH1, His6 and Flag tags) and Plasmid E (lambda CL); also called KT & I98A) VH: EVQLVQSGAEVKKPGESLKISCKGSGYSFTSYWIGWVRQMPGKGLEWMGIIYPGDSDTRYSPSFQGQVTISADKSISTAYLQWSSLKASDTAMYYCARRKYSYTYDYFDYWGQGTLVTVSS VL: QTVVTQEPSFSVSPGGTVTLTCGLSSGSVSTSYYPSWYQQTPGQAPRTLIYSTNTRSSGVPDRFSGSILGNKAALTITGAQADDESDYYCVLYMGSGASYVFGTGTKVTVL",ECL signal,[1],708
same,ECL signal,[2],1100
same,ECL signal,[3],1230
same,ECL signal,[4],359
same,ECL signal,[5],584
same,ECL signal,[6],1380
same,ECL signal,[7],700
same,ECL signal,[8],15100
same,ECL signal,[9],1050
"Fab VH5-51_IGHD5-18*01>3_IGHJ4*01 G100K/G104T (H:KT) & V3-4_IGLJ1*01 G23R (Fab, V domains shown, Fab (CH1 with His6/Flag tags from Plasmid A, lambda CL from Plasmid E); also called G100K/G104T & G23R) VH: EVQLVQSGAEVKKPGESLKISCKGSGYSFTSYWIGWVRQMPGKGLEWMGIIYPGDSDTRYSPSFQGQVTISADKSISTAYLQWSSLKASDTAMYYCARRKYSYTYDYFDYWGQGTLVTVSS VL: QTVVTQEPSFSVSPGGTVTLTCRLSSGSVSTSYYPSWYQQTPGQAPRTLIYSTNTRSSGVPDRFSGSILGNKAALTITGAQADDESDYYCVLYMGSGISYVFGTGTKVTVL",ECL signal,[10],68200
same,ELISA signal,[11],0.11
"Fab VH5-51_IGHD5-18*01>3_IGHJ4*01 G100K/G104T G24T/S28R/G35V & V3-4_IGLJ1*01 (Fab, V domains shown, Fab made in E. coli; VH was cloned in Plasmid A (CH1, His6 and Flag tags) and VL in Plasmid E (lambda CL); also called KT TRV; H:KT TRV & L:wt) VH: EVQLVQSGAEVKKPGESLKISCKTSGYRFTSYWIVWVRQMPGKGLEWMGIIYPGDSDTRYSPSFQGQVTISADKSISTAYLQWSSLKASDTAMYYCARRKYSYTYDYFDYWGQGTLVTVSS VL: QTVVTQEPSFSVSPGGTVTLTCGLSSGSVSTSYYPSWYQQTPGQAPRTLIYSTNTRSSGVPDRFSGSILGNKAALTITGAQADDESDYYCVLYMGSGISYVFGTGTKVTVL",koff,[12],7.17e-05 s⁻¹
same,kon,[13],2.09e+06 M⁻¹ s⁻¹
same,Kd,[14],36.2 nM
"Fab VH5-51_IGHD5-18*01>3_IGHJ4*01 & V3-4_IGLJ1*01 (Fab, V domains shown, Germline Fab made in E. coli; also called parental; wildtype) VH: EVQLVQSGAEVKKPGESLKISCKGSGYSFTSYWIGWVRQMPGKGLEWMGIIYPGDSDTRYSPSFQGQVTISADKSISTAYLQWSSLKASDTAMYYCARRGYSYGYDYFDYWGQGTLVTVSS VL: QTVVTQEPSFSVSPGGTVTLTCGLSSGSVSTSYYPSWYQQTPGQAPRTLIYSTNTRSSGVPDRFSGSILGNKAALTITGAQADDESDYYCVLYMGSGISYVFGTGTKVTVL",Kd,[15],4800 nM
"Fab VH5-51_IGHD5-18*01>3_IGHJ4*01 G100K/G104T & V3-4_IGLJ1*01 (Fab, V domains shown, Fab made in E. coli; VH was cloned in Plasmid A (CH1, His6 and Flag tags) and VL in Plasmid E (lambda CL); also called KT; H:KT & L:wt) VH: EVQLVQSGAEVKKPGESLKISCKGSGYSFTSYWIGWVRQMPGKGLEWMGIIYPGDSDTRYSPSFQGQVTISADKSISTAYLQWSSLKASDTAMYYCARRKYSYTYDYFDYWGQGTLVTVSS VL: QTVVTQEPSFSVSPGGTVTLTCGLSSGSVSTSYYPSWYQQTPGQAPRTLIYSTNTRSSGVPDRFSGSILGNKAALTITGAQADDESDYYCVLYMGSGISYVFGTGTKVTVL",koff,[16],2.3e-05 s⁻¹
same,kon,[17],64500 M⁻¹ s⁻¹
same,Kd,[18],355 nM
"Fab VH5-51_IGHD5-18*01>3_IGHJ4*01 G100K/G104T G24T/S28R/G35V & V3-4_IGLJ1*01 M94R/S96M (Fab, V domains shown, Fab made in E. coli; VH was cloned in Plasmid A (CH1, His6 and Flag tags) and VL in Plasmid E (lambda CL); also called H:KT TRV & L:RM) VH: EVQLVQSGAEVKKPGESLKISCKTSGYRFTSYWIVWVRQMPGKGLEWMGIIYPGDSDTRYSPSFQGQVTISADKSISTAYLQWSSLKASDTAMYYCARRKYSYTYDYFDYWGQGTLVTVSS VL: QTVVTQEPSFSVSPGGTVTLTCGLSSGSVSTSYYPSWYQQTPGQAPRTLIYSTNTRSSGVPDRFSGSILGNKAALTITGAQADDESDYYCVLYRGMGISYVFGTGTKVTVL",koff,[19],0.000101 s⁻¹
same,Kd,[20],40.3 nM
same,kon,[21],2.53e+06 M⁻¹ s⁻¹
"Fab VH5-51_IGHD5-18*01>3_IGHJ4*01 G100K/G104T S28R & V3-4_IGLJ1*01 (Fab, V domains shown, Fab made in E. coli; VH was cloned in Plasmid A (CH1, His6 and Flag tags) and VL in Plasmid E (lambda CL); also called KT S28R; H:KT S28R & L:wt) VH: EVQLVQSGAEVKKPGESLKISCKGSGYRFTSYWIGWVRQMPGKGLEWMGIIYPGDSDTRYSPSFQGQVTISADKSISTAYLQWSSLKASDTAMYYCARRKYSYTYDYFDYWGQGTLVTVSS VL: QTVVTQEPSFSVSPGGTVTLTCGLSSGSVSTSYYPSWYQQTPGQAPRTLIYSTNTRSSGVPDRFSGSILGNKAALTITGAQADDESDYYCVLYMGSGISYVFGTGTKVTVL",koff,[22],8.45e-05 s⁻¹
same,Kd,[23],114 nM
same,kon,[24],740000 M⁻¹ s⁻¹
"Fab VH5-51_IGHD5-18*01>3_IGHJ3*01 & V3-4_IGLJ1*01 (Fab, V domains shown, Fab; the JH germline segment IGHJ4*01 of the parent is swapped for IGHJ3*01; Constant parts come from Plasmid A (CH1, His6, Flag) and Plasmid E (lambda CL); also called J-swap mutant IGHJ3*01) VH: EVQLVQSGAEVKKPGESLKISCKGSGYSFTSYWIGWVRQMPGKGLEWMGIIYPGDSDTRYSPSFQGQVTISADKSISTAYLQWSSLKASDTAMYYCARRGYSYGYDAFDVWGQGTLVTVSS VL: QTVVTQEPSFSVSPGGTVTLTCGLSSGSVSTSYYPSWYQQTPGQAPRTLIYSTNTRSSGVPDRFSGSILGNKAALTITGAQADDESDYYCVLYMGSGISYVFGTGTKVTVL",Signal/Noise,[25],3.1
